Measurements: patent US20060233708A1
Values joined by “and” are separate entries in the source; they are usually repeats but may differ in a detail not shown here. Equal values may be shown once. Ends that are not written are not given here.

What was measured:
[1] = target: TGF-β receptors in mink lung epithelial cells
[2] = target: TGF-β receptors in mink lung epithelial cells; test: competition with 125I-TGF-β1 for binding to mink lung epithelial cells
[3] = target: TGF-β receptors in mink lung epithelial cells; test: specific binding of 125I-TGF-β1 to mink lung epithelial cells without peptide
[4] = target: TGF-β receptors in mink lung epithelial cells; test: specific binding of 0.1 nM 125I-TGF-β1 to mink lung epithelial cells
[5] = target: TGF-β receptors in mink lung epithelial cells; test: specific binding of 125I-TGF-β3 to mink lung epithelial cells without peptide
[6] = target: type I TGF-β receptor (mink); test: inhibition of 125I-TGF-β1 affinity labeling of receptors on mink lung epithelial cells
[7] = target: type V TGF-β receptor (mink); test: as above
[8] = target: type II TGF-β receptor (mink); test: as above
[9] = target: type III TGF-β receptor (mink); test: as above
[10] = target: TGF-β receptors in mink lung epithelial cells; test: competition with 125I-TGF-β2 for binding to mink lung epithelial cells
[11] = target: TGF-β receptors in mink lung epithelial cells; test: competition with 125I-TGF-β3 for binding to mink lung epithelial cells
[12] = target: TGF-β receptors in mink lung epithelial cells; test: competition with 125I-TGF-β1 for binding to mink lung epithelial cells; remark: listed apart in the source
[13] = target: TGF-β receptors in mink lung epithelial cells; test: specific binding of 125I-TGF-β2 to mink lung epithelial cells without peptide

“peptide β1^25 (41-65)-bovine serum albumin (BSA) conjugate (from UniProt P02769)” showed an ED50 of growth inhibition as measured by DNA synthesis in mink lung epithelial cells [1] of 100 nM, an IC50 [2] of 60 nM and a fold lower IC50 than peptide β1^25 (41-65) prior to conjugation [2] of 20 fold.

In the case of “peptide β1^25 (41-65)-carbonic anhydrase (CA) conjugate (from UniProt P00915)”, the ED50 of growth inhibition as measured by DNA synthesis in mink lung epithelial cells [1] is reported as 100 nM, the IC50 [2] is reported as 50 nM and the fold lower IC50 than peptide β1^25 (41-65) prior to conjugation [2] is reported as 20 fold.

TGF-β1 (ligand) showed a specific binding (0% inhibition) [3] of 3930 cpm/well and a specific binding without peptides [4] of 3670 cpm/well.

B1: TGF-β3 (ligand)
chain: ALDTNYCFRNLEENCCVRPLYIDFRQDLGWKWVHEPKGYYANFCSGPCPYLRSADTTHSTVLGLYNTLNPEASASPCCVPQDLEPLTILYYVGRTPKVEQLSNMVVKSCKCS
modifications: ^125I-labelled (iodination with Na^125I)
Molecule B1 has a specific binding (0% inhibition) [5] of 4220 cpm/well.

ANFCLGPCPYIWSLDTQYSKVLALY (not fully specified; cysteine pairing not given here) [peptide β1^25 (41-65)] gave a percent inhibition of ^125I-TGF-β1-affinity labeling at 2.3 µM [6] of 30 to 40%, a concentration at which ^125I-TGF-β1-affinity labeling was almost completely abolished [7] of 2.3 µM and a percent inhibition of ^125I-TGF-β1-affinity labeling at 2.3 µM [8] of 30 to 40%. The percent inhibition of ^125I-TGF-β1-affinity labeling at 2.3 µM [9] was 30 to 40%, the IC50 [10] was 1000 nM and 2000 nM and the IC50 [11] was 60 to 80 nM. The IC50 [12] was 1000 nM and 2000 nM and the concentration of complete inhibition of ^125I-TGF-β1 binding [12] was 34 µM.

In the case of ANFCAGACPYLWSSDTQHSRVLSLY (not fully specified; cysteine pairing not given here) [peptide β2^25 (41-65)], the IC50 [10] is reported as 1000 nM and 2000 nM, the IC50 [11] is reported as 80 nM and the IC50 [12] is reported as 1000 nM and 2000 nM.

ANFCSGPCPYLRSADTTHSTVLGLY (not fully specified; cysteine pairing not given here) [peptide β3^25 (41-65)] showed an IC50 [10] of 20000 nM, an IC50 [11] of 60 to 80 nM and an IC50 [12] of 20000 nM.

Molecule PYLWASDTQH [peptide β2^10 (49-58) S53A] has an IC50 [12] of 40000 nM.

PYIWSLDTQY [peptide β1^10 (49-58)] was tested, and the IC50 [12] was 40000 to 70000 nM.

PYLWSSDTQH [peptide β2^10 (49-58)] gave an IC50 [12] of 40000 to 70000 nM.

B2: TGF-β2 (ligand)
chain: ALDAAYCFRNVQDNCCLRPLYIDFKRDLGWKWIHEPKGYNANFCAGACPYLWSSDTQHSRVLSLYNTINPEASASPCCVSQDLEPLTILYYIGKTPKIEQLSNMIVKSCKCS
modifications: ^125I-labelled (iodination with Na^125I)
With B2 the specific binding (0% inhibition) [13] was 4510 cpm/well.
